From article PMC7547737

Assays:
FLAG-AKT^T308D = FLAG-AKT^T308D (UniProt P31749); assay: co-IP; SK-Br3 cells transfected with FLAG-tagged AKT constructs, starved with U0126, treated with TZ 20 min, cross-linked with DSP; anti-FLAG magnetic beads, 3 h at 4 °C; Western blot, amounts normalised on precipitated protein and input
FLAG-AKT^T308A = FLAG-AKT^T308A (UniProt P31749); assay: as above

Ser/Thr-protein phosphatase 2A (PP2A)-catalytic subunit beta isoform (from UniProt P62714 1-309) (enzyme)
percent co-precipitated against wt AKT (FLAG-AKT^T308D): 60% | percent co-precipitated against wt AKT (FLAG-AKT^T308A): 60%
